Reference: article PMC7062783, “Endophilin-A coordinates priming and fusion of neurosecretory vesicles via intersectin” (Nature Communications, 2020)

Molecular target: T1, recombinant rat endophilin A1 FL (GST fusion) (rat, UniProt O35179 1-352)
T1 construct: endophilin A1 (endophilin 1), rat, full length, cloned into pGEX4T-1; also called endophilin 1
Test: pull-down; 50 or 100 ug GST-fusion protein coupled to GST-Bind resin, incubated with 10 ug His6-tagged recombinant protein in 1 ml for 1 h at 4 °C; extensive washes; Coomassie staining and/or SDS-PAGE and immunoblotting
Settings: both partners purified

T1 sequence (O35179 whole entry, the tested form may be a part): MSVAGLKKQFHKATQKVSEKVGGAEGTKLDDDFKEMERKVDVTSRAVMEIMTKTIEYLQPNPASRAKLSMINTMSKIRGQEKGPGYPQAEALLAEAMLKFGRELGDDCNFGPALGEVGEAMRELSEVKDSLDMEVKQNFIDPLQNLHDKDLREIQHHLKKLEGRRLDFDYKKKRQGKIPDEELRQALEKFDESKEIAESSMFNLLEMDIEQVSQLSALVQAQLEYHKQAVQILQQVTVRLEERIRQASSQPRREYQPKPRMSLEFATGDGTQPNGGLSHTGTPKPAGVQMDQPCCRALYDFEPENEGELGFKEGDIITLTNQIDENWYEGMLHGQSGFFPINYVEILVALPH

B1: recombinant human intersectin-1 SH3B (aa 914-970), His6-tagged (domain or fragment, UniProt Q15811 914-970, looked up)
chain: EGLQAQALYPWRAKKDNHLNFNKNDVITVLEQQDMWWFGEVQGQKGWFPKSYVKLIS
notes: intersectin-1, human, SH3B domain, aa 914-970, cloned in pET28a; also called ITSN-1; ITSN1
binding result: binds
